Experiments:
Experiment in all cases: SPR; free energy change relative to wild-type D2
[1] = molecular target: T1, FGFR1 D2 point mutant H54A (human, UniProt P11362 22-254)
T1 chain: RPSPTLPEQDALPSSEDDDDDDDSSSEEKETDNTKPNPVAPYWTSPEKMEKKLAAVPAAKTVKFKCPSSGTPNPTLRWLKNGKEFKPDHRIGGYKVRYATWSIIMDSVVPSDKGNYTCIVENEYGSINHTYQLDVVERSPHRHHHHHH
Experimental: (§1) Binding affinities of anti-FGFR1 antibodies to FGFR1 were measured by Surface Plasmon Resonance (SPR) using a GE Healthcare BIAcore 4000 instrument as follows. Goat anti-human Fc antibody (Jackson ImmunoResearch Laboratories #109-005-098) was first immobilized on BIAcore carboxymethylated dextran CM5 chip using direct coupling to free amino groups following the procedure described by the manufacturer. Antibodies were then captured on the CM5 biosensor chip to achieve approximately 200 response units (RU). Binding measurements were performed using the running HBS-EP+ buffer. A 2-fold dilution series of His-tagged FGFR1 proteins were injected at a flow rate of 30 μl/min at 25° C. Association rates (kₒₙ, per mol/s) and dissociation rates (koff, per s) were calculated using a simple 1:1 Langmuir binding model (Biacore 4000 Evaluation Software). The equilibrium dissociation constant (KD, mol) was calculated as the ratio of koff/kₒₙ.
(§2) To obtain a finer, residue-level mapping of the epitope and to complement the HD exchange data, molecular modelling and manual inspection of the crystal structure of FGFR1 [(Beenken et al. 2012); PDB record 3OJV] was used to select solvent exposed residues within and around the epitope identified by HD exchange. The selected residues were mutated either to alanine (large to small) or to glycine if the selected residue was alanine. In total 35 point mutants were designed, expressed and purified in HEK cells, and tested for binding to mAb #A08 using surface plasmon resonance as described in Example 1.8. The affinity of the antibody for wild-type and each mutant was determined and used to calculate the contribution of each epitope residue to the binding energy.
(§3) Variant were compared to wild-type D2. The change in the Gibbs free energy of binding of mutant relative to the wild-type D2 construct (ΔΔGₘᵤₜ) was derived from the ratio of the wild-type and mutant KD.

[2] = molecular target: T2, FGFR1 D2 point mutant A99G (human, UniProt P11362 22-254)
T2 chain: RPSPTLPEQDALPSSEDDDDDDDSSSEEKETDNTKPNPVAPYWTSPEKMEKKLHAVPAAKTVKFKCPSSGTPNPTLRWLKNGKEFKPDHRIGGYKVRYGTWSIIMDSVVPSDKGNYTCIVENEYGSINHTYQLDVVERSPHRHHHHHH
Experimental: as §1, §2, §3

[3] = molecular target: T3, FGFR1 D2 point mutant Y98A (human, UniProt P11362 22-254)
T3 chain: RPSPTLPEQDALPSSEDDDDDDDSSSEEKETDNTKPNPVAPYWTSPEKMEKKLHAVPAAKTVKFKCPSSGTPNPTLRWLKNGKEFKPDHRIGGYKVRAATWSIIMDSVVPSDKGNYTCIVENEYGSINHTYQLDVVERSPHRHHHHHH
Experimental: as §1, §2, §3

[4] = molecular target: T4, FGFR1 D2 point mutant V96A (human, UniProt P11362 22-254)
T4 chain: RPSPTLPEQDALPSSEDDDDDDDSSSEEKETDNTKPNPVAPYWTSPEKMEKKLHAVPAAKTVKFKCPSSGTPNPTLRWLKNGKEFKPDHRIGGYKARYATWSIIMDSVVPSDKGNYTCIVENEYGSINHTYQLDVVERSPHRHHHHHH
Experimental: as §1, §2, §3

[5] = molecular target: T5, FGFR1 D2 point mutant K65A (human, UniProt P11362 22-254)
T5 chain: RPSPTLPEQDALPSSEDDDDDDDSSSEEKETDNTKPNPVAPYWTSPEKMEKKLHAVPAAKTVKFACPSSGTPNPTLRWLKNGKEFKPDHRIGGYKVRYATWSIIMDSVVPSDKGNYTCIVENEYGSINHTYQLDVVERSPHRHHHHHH
Experimental: as §1, §2, §3

[6] = molecular target: T6, FGFR1 D2 point mutant H89A (human, UniProt P11362 22-254)
T6 chain: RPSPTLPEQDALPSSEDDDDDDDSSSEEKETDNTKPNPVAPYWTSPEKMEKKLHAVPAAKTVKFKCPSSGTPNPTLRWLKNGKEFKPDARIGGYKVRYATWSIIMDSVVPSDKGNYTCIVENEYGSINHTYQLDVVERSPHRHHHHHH
Experimental: as §1, §2, §3

[7] = molecular target: T7, FGFR1 D2 point mutant K86A (human, UniProt P11362 22-254)
T7 chain: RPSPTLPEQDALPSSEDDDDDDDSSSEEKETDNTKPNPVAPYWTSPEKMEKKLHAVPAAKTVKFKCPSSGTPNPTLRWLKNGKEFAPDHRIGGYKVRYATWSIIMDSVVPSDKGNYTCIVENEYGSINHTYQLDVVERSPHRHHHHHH
Experimental: as §1, §2, §3

[8] = molecular target: T8, FGFR1 D2 point mutant Y94A (human, UniProt P11362 22-254)
T8 construct: Uncharacteristic melting curve
T8 chain: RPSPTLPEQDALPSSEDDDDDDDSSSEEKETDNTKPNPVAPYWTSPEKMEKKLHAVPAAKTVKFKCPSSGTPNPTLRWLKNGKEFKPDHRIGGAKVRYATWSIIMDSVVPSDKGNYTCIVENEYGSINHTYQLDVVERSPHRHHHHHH
Experimental: as §1, §2, §3

[9] = molecular target: T9, FGFR1 D2 point mutant S102A (human, UniProt P11362 22-254)
T9 chain: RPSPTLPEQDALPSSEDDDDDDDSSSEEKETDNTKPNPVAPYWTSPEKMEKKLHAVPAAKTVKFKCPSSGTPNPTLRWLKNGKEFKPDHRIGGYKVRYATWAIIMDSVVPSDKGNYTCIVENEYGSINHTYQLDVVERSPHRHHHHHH
Experimental: as §1, §2, §3

[10] = molecular target: T10, FGFR1 D2 point mutant P87A (human, UniProt P11362 22-254)
T10 chain: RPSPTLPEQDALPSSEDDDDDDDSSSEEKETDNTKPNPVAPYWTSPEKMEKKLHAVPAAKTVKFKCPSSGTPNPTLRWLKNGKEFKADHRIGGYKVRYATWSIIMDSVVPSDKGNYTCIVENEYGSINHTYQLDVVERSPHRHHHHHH
Experimental: as §1, §2, §3

- ΔΔGmut [1]: 0.37 kcal/mol
- ΔΔGmut [2]: -0.05 kcal/mol
- ΔΔGmut [3]: -0.04 kcal/mol
- ΔΔGmut [4]: -0.02 kcal/mol
- ΔΔGmut [5]: -0.04 kcal/mol
- ΔΔGmut [6]: -0.02 kcal/mol
- ΔΔGmut [7]: -0.06 kcal/mol
- ΔΔGmut [8]: 0.96 kcal/mol
- ΔΔGmut [9]: -0.13 kcal/mol
- ΔΔGmut [10]: 0.08 kcal/mol
B1: mAb #A08 (antibody, V domains shown)
VH: EVQLQESGPGLVKPSGTLSLTCAVSGGSISSNNWWSWVRQPPGKGLEWIGEIYHSGSTSYNPSLKSRVTISVDKSKNQFSLKLNSVTAADTAVYYCARGTDWFDPWGQGTLVTVSS
VL: QAVLTQPPSVSVAPGQTARITCGGNNIGSESVHWYQQKPGQAPVLVVYDDSDRPSGIPERFSGSNSGNTATLTISRVEAGDEADYYCQVWDSTSDHRVFGGGTKLTVL
notes: Only variable domains are tied to the name mAb #A08 (hit); also called #A08 hit; mAb #08

From patent publication US20190367620A1 (Merck KGaA, published 2019)
